Assay results taken from patent US20070081991A1, “Compositions and methods for modulation of immune responses” (Pepgen Corporation, priority 2001, published 2007).
“Also recorded” adds a separate entry of the source. Marks after values point to notes of the source that are not given here.

Key:
[1] = mice; cited from earlier work
Qa-1^b = biological target: T1, Qa-1^b (Mus musculus, UniProt P06339); settings: cited from earlier work
T1 sequence (P06339 21-357): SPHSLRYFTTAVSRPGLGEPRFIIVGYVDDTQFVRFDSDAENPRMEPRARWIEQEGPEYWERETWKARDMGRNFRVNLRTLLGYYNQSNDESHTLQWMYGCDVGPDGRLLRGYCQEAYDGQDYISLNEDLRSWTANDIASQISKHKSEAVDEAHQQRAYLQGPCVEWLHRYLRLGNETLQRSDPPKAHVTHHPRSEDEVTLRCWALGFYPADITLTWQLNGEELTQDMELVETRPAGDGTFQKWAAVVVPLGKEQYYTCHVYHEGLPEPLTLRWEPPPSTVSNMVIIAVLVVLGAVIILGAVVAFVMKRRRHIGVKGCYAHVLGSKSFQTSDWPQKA
T1 sequence (P01887 21-119 partner): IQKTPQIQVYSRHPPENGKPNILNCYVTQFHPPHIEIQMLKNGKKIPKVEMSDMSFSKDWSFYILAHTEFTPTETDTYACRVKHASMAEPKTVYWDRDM

HLA-E [2] = test: HLA-E stabilization assay (cell surface expression by flow cytometry); format: cell-based, human; settings: overnight incubation with peptide at 26° C.
Method: Synthetic peptides, purchased from Research Genetics, were dissolved in PBS. The peptides used were B7sp ([…]) (SEC ID NO: 3), hsp60sp ([…]) (SEC ID NO: 2), B7 R5V ([…]) (SEC ID NO: 14), hsp60 V5R ([…]) ([…]), and P18I10 ([…]) (SEC ID NO: 113) (all from Research Genetics, Huntsville, Ala.). Cells and their HLA-E transfected derivatives were incubated with synthetic peptides (3-300 μM) at 26° C. for 15-20 hours in serum-free AIM-V medium (GibcoBRL, Paisley Scotland) at a concentration of 1-3.10^6 cells/ml. Cells were then harvested, washed in PBS, stained with mAbs and analyzed by flow cytometry. Cells were subjected to stress by allowing them to grow at increasing cell density.
To test whether the hsp60-derived peptides were able to bind HLA-E, stabilized HLA-E cell surface expression was stabilized with the different synthetic peptides, by overnight incubation at 26° C. For this purpose MHC class I-deficient cell lines such as 721.221 (which lack HLA-A, -B, -C, and -G, but express HLA-E and -F intracellularly), as well as K562 cells transfected with HLA-E*01033 (K562-E*01033) or HLA-E*0101 were employed. The 721.221 cells and HLA-E transfected, but not untransfected, K562 cells express low levels of HLA-E at the cell surface during normal cell growth.

HLA-E [3] = biological target: T2, HLA-E (Homo sapiens, UniProt P13747); test: Peptide competition with B7sp in cytotoxic assay on K562-E*01033 cells; format: cell-based; settings: 0.1 μM B7sp together with increasing concentrations of competing peptide; effector Nishi
T2 construct: HLA-E*0101 and HLA-E*01033 cDNA encoding plasmids (pcDNA3) were provided by Drs; M. Ullbrecht and E. Weiss; expressed in transfected cells; host or cells: K562
Method: (§1) K562-E*01033 cells were incubated with the different peptides at 26° C. for 15-20 hours, and then tested in 2 h 51Cr release assays. In order to ensure that the levels of HLA-E with a protective peptide, and not the HLA-E levels as such, provided the protective capacity we kept the non-protective peptides, but omitted the B7sp, during the assays. (a) Killing of K562-E*01033 cells by NKL (left) or Nishi (right) after incubation with […], 300 mM hsp60sp, or 30 mM B7sp. 50 mM of P18I10 control peptide and hsp60sp was also included during the assays. Data from an E:T ratio of 30:1 is shown. The figure represents the mean of at least three experiments. Error bars indicate standard error of the mean. (b) Killing of K562-E*01033 cells by NKL (left panel) or Nishi (right panel) incubated over night with 30 mM 7sp, 300 mM P18I10 (pCtrl), 300 mM B7 R5V, 300 mM hsp60sp, or 300 mM hsp60 V5R. 50 mM of all peptides, except B7sp, were included during the assay. Peptide concentrations were chosen according to FIG. 5c. The figure represents the mean of at least three experiments. Error bars indicate standard error of the mean. (c) HLA-E cell surface expression by K562-E*01033 after the assay. A cold target preparation was prepared in parallel as in (a) and (b), and then stained with DX17 mAb (anti-HLA class I), followed by RPE-conjugated goat-anti-mouse IgG. One representative example out of more than 5 is shown. Note that, as in (a) and (b), 50 mM of all peptides, except for B7sp, was present during the time of the assay, explaining the lower HLA-E expression with B7sp compared to Hsp60sp, Hsp60 V5R and B7 R5V. (d) Killing of K562-E*01033 cells by Nishi after incubation for 30 min at room temperature with 0.1 mM B7sp and increasing amounts of competing peptides (hsp60sp, hsp60.4, B7 R5V and P18I10). All the peptides were kept throughout the assay
Briefly, K562-E*01033 cells were incubated with 0.1 μM B7sp together with increasing concentrations of competing peptides and tested in cytotoxic assays.

CD94/NKG2A+ NK cells = settings: peptide presented by Qa-1^b; cited from earlier work
[4] = system: CD94/NKG2A+ NK cell lines Nishi and NKL; test: NK cell-mediated cytotoxicity, 2 h 51Cr release, peptide-loaded K562-E*01033 targets; format: cell-based, human; settings: targets incubated overnight at 26° C. with peptide; effectors NKL and Nishi
Method: as §1
NK cell-mediated cytotoxicity was measured using a 2 hours standard ^51Cr radioisotope release assay. Briefly, target cells were incubated for 15-20 hours at 26° C. with the various peptides at concentrations ranging from 1-300 μM, and then labeled with ^51Cr. Peptides were washed away prior to setting up the assays, except in some experiments where the non-protective hsp60sp, B7 R5V and hsp60 V5R was kept throughout the assay to assure higher levels of HLA-E expression, as compared to targets incubated with the protective B7sp. In mAb blocking experiments, cells were preincubated with mouse serum, or an irrelevant isotype matched antibody to block Fc-receptors. Blocking of either target or effector cells with mAbs was performed at 4° C., and the antibodies were also included during the assays. […]

HLA-E [5] = test: HLA-E stabilization assay (cell surface expression by flow cytometry); format: cell-based, human; settings: at 37° C.
[6] = biological target: T3, HLA-E on cells, allele not told (human, UniProt P13747 22-358; P61769 21-119); test: summary of the examples
T3 construct: whole, on cells

[7] = biological target: T4, HLA-E*01033 on transfected K562 cells (K562-E*01033) (human); test: HLA-E surface stabilisation on transfected K562 cells, synthetic peptide overnight at 26 C, flow cytometry
T4 construct: whole, on cells; MHC class I molecule that takes up added peptide in the 26 C stabilisation assay
Method: (§2) Synthetic peptides, purchased from Research Genetics, were dissolved in PBS. […] Cells and their HLA-E transfected derivatives were incubated with synthetic peptides (3-300 μM) at 26° C. for 15-20 hours in serum-free AIM-V medium (GibcoBRL, Paisley Scotland) at a concentration of 1-3.10⁶ cells/ml. Cells were then harvested, washed in PBS, stained with mAbs and analyzed by flow cytometry. Cells were subjected to stress by allowing them to grow at increasing cell density.

[8] = biological target: T4, HLA-E*01033 on transfected K562 cells …; test: HLA-E surface expression on K562-E*01033 cells after the cytotoxic assay, DX17 staining, flow cytometry
[9] = biological target: T4, HLA-E*01033 on transfected K562 cells …; test: HLA-E surface stabilisation on K562-E*01033 cells, DX17 staining, flow cytometry
Method: as §2

[10] = biological target: T3, HLA-E on cells, allele not told; test: HLA-E surface stabilisation with synthetic peptide overnight at 26 C, flow cytometry
Method: as §2

[11] = biological target: T3, HLA-E on cells, allele not told; test: HLA-E surface stabilisation on transfected K562 and 721.221 cells, flow cytometry
Method: as §2

[12] = K562 cells transfected with HLA-E*01033 or HLA-E*0101

CN(C(=O)c1c(O)c2ccccc2n(C)c1=O)c1ccccc1 [linomide]
protection from developing EAE [1]: can protect mice from developing disease

AMAPRTLLL [qdm, reference compound]
binding to Qa-1^b (Qa-1^b): known to form relatively stable Qa-1b/peptide complex

GMKFDRGYI [hsp60.4, human hsp60 residues 216-224]
HLA-E cell surface expression (stabilization) (HLA-E [2]; 721.221 cells): capable of stabilizing HLA-E molecules | HLA-E cell surface expression (stabilization) (HLA-E [2]; [12]): capable of stabilizing HLA-E molecules; also recorded: can bind to HLA-E | competition with B7sp (loss of HLA-E mediated protection from killing) (HLA-E [3]): not able to compete with B7sp; also recorded: could not compete with the B7sp for binding to HLA-E | binding to Qa-1^b (Qa-1^b): bind to mouse Qa-1^b molecules; also recorded: could bind to Qa-1^b; also recorded: binds to Qa-1^b | competition with Qdm-peptide for binding to Qa-1^b (Qa-1^b; even when mixed in 100,000-fold excess with 1 mM Qdm): failed to compete with the protective Qdm-peptide for binding to Qa-1^b; also recorded: nor could it reportedly compete for binding to Qa-1^b | protection from CD94/NKG2A+ NK cells (CD94/NKG2A+ NK cells): did not induce protection from CD94/NKG2A^+ NK cells; also recorded: fail to protect the cells from NK cell mediated lysis

L MLQGVDLL (N-terminal Leu) [hsp60.2, human hsp60 residues 39-47]
HLA-E cell surface expression (stabilization) (HLA-E [2]; [12]): HLA-E stabilization was not observed

QMRPRSRVL [hsp60 V5R, hsp60sp with valine to arginine at position 5]
protection of K562-E*01033 cells from killing by NK cells [4]: not sufficient to restore protection from killing

QMRPVSRVL [hsp60sp]
HLA-E cell surface expression (stabilization) (HLA-E [2]; [12]): substantial increase in HLA-E expression; also recorded: stabilization of HLA-E | protection of K562-E*01033 cells from killing by NK cells [4]: did not result in any significant protection; also recorded: fails to protect K562-E*01033 cells from killing by NK cells | competition with B7sp (loss of HLA-E mediated protection from killing) (HLA-E [3]): could interfere with HLA-E mediated protection by competing with MHC class I signal peptides; also recorded: became more susceptible to killing with increasing concentrations of hsp60sp | dissociation of HLA-E/peptide complexes (HLA-E [5]): dissociated faster than the HLA-E/B7sp

RGPGRAFVTI [P18I10, reference compound]
competition with B7sp (loss of HLA-E mediated protection from killing) (HLA-E [3]): remained protected from killing at all concentrations tested

VMAPVTVLL [B7 R5V, B7sp with arginine to valine at position 5]
HLA-E cell surface expression (stabilization) (HLA-E [2]; [12]): expressed high levels of HLA-E | protection of K562-E*01033 cells from killing by NK cells [4]: efficiently killed by CD94/NKG2A^+ NK cells | competition with B7sp (loss of HLA-E mediated protection from killing) (HLA-E [3]): even stronger competitor than hsp60sp

VMLAVDAVI [hsp60.3, human hsp60 residues 144-152]
HLA-E cell surface expression (stabilization) (HLA-E [2]; [12]): HLA-E stabilization was not observed

B1: hsp60sp (QMRPVSRVL), nonamer from the signal sequence of human hsp60 (peptide)
peptide: QMRPVSRVL
notes: Synthetic peptide (Research Genetics); also called hsp60 signal peptide; hsp60 leader peptide
binding result [6]: binds | binding result [7]: binds

B2: hsp60 V5R (QMRPRSRVL) (peptide)
peptide: QMRPRSRVL
binding result [8]: binds

B3: B7sp (VMAPRTVLL), peptide from the leader sequence of HLA-B*0701 (peptide)
peptide: VMAPRTVLL
notes: also called B7 signal peptide
binding result [7]: binds

B4: B7 R5V (VMAPVTVLL) (peptide)
peptide: VMAPVTVLL
binding result [9]: binds

B5: hsp60.2 peptide (LMLQGVDLL) (peptide)
peptide: LMLQGVDLL
binding result [10]: no binding

B6: hsp60.4 peptide (GMKFDRGYI) (peptide)
peptide: GMKFDRGYI
binding result [11]: binds

B7: hsp60.3 peptide (VMLAVDAVI) (peptide)
peptide: VMLAVDAVI
binding result [10]: no binding
